For the assay, the target named is de2-7EGFR (UniProt P00533). Nature of the assay: non-reducing SDS-PAGE and Western blot of disulfide-bonded dimers; cells washed and lysed in RIPA buffer with 10 mM iodoacetamide; non-reducing Laemmli buffer; blot probed with mAb806.

“de2-7EGFR (from UniProt P00533 25-1210) (receptor)” gave a dimer as proportion of the total species of 25%.

(Values after article PMC3757403.)
